pKd: −log10 of the molar value.
How the values were obtained:
[1] = biological target: Human Complement C5 Protein (human) (UniProt P01031)
[2] = biological target: Mouse Complement C5 Protein (mouse) (UniProt P06684)
[3] = biological target: Cyno Complement C5 Protein (cynomolgous macaque)

recombinant C5 inhibitor (C5I) protein (from UniProt Q5YD59 19-168)
pKd [1]: 7.99 | pKd [2]: 8.20 | pKd [3]: 8.29

From US20260034246A1
